Results reported in publication PMC10609481, “Substrate DNA Promoting Binding of Mycobacterium tuberculosis MtrA by Facilitating Dimerization and Interpretation of Affinity by Minor Groove Width”.

B1: Rv3859c G20A T21A (dsDNA)
DNA 1: GTTACGTGATCGAATTGTGAACCAGG
DNA 2: CCTGGTTCACAATTCGATCACGTAAC
B2: Rv3859c G20A T21C (dsDNA)
DNA 1: GTTACGTGATCGAATTGTGACCCAGG
DNA 2: CCTGGGTCACAATTCGATCACGTAAC
B3: Rv3859c G20A (dsDNA)
DNA 1: GTTACGTGATCGAATTGTGATCCAGG
DNA 2: CCTGGATCACAATTCGATCACGTAAC
B4: Rv3859c G20C (dsDNA)
DNA 1: GTTACGTGATCGAATTGTGCTCCAGG
DNA 2: CCTGGAGCACAATTCGATCACGTAAC
B5: Rv3859c G20A T21G (dsDNA)
DNA 1: GTTACGTGATCGAATTGTGAGCCAGG
DNA 2: CCTGGCTCACAATTCGATCACGTAAC
B6: Rv3859c G20T (dsDNA)
DNA 1: GTTACGTGATCGAATTGTGTTCCAGG
DNA 2: CCTGGAACACAATTCGATCACGTAAC

Target: T1, MtrA (Mycobacterium tuberculosis H37Rv, UniProt P9WGM7 1-228)
T1 sequence: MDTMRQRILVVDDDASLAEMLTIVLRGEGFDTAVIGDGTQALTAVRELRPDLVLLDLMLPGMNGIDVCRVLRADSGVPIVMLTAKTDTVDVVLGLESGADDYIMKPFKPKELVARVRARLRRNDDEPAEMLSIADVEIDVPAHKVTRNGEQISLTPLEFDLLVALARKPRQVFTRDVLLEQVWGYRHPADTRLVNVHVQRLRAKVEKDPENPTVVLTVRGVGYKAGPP
Assay: BLI
Settings: protein: recombinant; tags: His6 (pET28a, BamHI/XhoI; N-terminal, inferred from stop codon in reverse primer); chain copies: 2; blunt

Row | Binder | Kd [µM]
1 | B1 | 19.5
2 | B2 | 0.124
3 | B3 | 0.178
4 | B4 | 7120
5 | B5 | 15.7
6 | B6 | 4380
